Assays:
[1] = Kinetic characterization of dCK variants, substrate D-dC; format: biochemical; details: for kobs D-dC: nucleoside concentration of 200 μM, ATP 1 mM; for rate of phosphorylation, D-dC: Table 8, nucleoside 200 mM, ATP 1 μM [sic]; for Rel kobs (D-dC): relative to WT
[2] = Kinetic characterization of dCK variants, substrate D-dG; format: biochemical; details: for kobs D-dG: nucleoside concentration of 200 μM, ATP 1 mM; for rate of phosphorylation, D-dG: Table 8, nucleoside 200 mM, ATP 1 μM [sic]; for Rel kobs (D-dG): relative to WT
[3] = Kinetic characterization of dCK variants, substrate D-dA; format: biochemical; details: for kobs D-dA: nucleoside concentration of 200 μM, ATP 1 mM; for Rel kobs (D-dA): relative to WT
[4] = Kinetic characterization of dCK variants, substrate AraC; format: biochemical; details: for kobs AraC: nucleoside concentration of 200 μM, ATP 1 mM; for Rel kobs (AraC): relative to WT
[5] = Kinetic characterization of dCK variants, substrate gemcitabine; format: biochemical; details: for kobs Gem: nucleoside concentration of 200 μM, ATP 1 mM; for rate of phosphorylation, Gem: Table 8, nucleoside 200 mM, ATP 1 μM [sic]; for Rel kobs (Gem): relative to WT
[6] = Kinetic characterization of dCK variants, substrate D-dT; format: biochemical; details: for kobs D-dT: nucleoside concentration of 200 μM, ATP 1 mM; for rate of phosphorylation, D-dT: Table 8, nucleoside 200 mM, ATP 1 μM [sic]; for Rel kobs (D-dT): relative to WT
[7] = Kinetic characterization of dCK variants, substrate L-dT; format: biochemical; details: for kobs L-dT: nucleoside concentration of 200 μM, ATP 1 mM; for rate of phosphorylation, L-dT: Table 8, nucleoside 200 mM, ATP 1 μM [sic]; for Rel kobs (L-dT): relative to WT
[8] = Kinetic analysis of dCK variants, substrate L-dU; format: biochemical; details: Table 8; nucleoside 200 mM, ATP 1 μM [sic]
Experimental: In a separate experiment, those mutant dCKs were analyzed in the presence of a nucleoside substrate at a concentration of 200 mM, and a phosphoryl donor ATP at a concentration of 1 μM.

A100V/R104M/D133A-dCK = molecular target: T1, A100V/R104M/D133A-dCK (Homo sapiens, UniProt P27707, A100V/D133A/R104M); experiment: Steady-state kinetic assay of nucleoside phosphorylation by A100V/R104M/D133A-dCK; format: biochemical
T1 construct: His-tag (N); made in house
T1 sequence (P27707 whole entry A100V/R104M/D133A): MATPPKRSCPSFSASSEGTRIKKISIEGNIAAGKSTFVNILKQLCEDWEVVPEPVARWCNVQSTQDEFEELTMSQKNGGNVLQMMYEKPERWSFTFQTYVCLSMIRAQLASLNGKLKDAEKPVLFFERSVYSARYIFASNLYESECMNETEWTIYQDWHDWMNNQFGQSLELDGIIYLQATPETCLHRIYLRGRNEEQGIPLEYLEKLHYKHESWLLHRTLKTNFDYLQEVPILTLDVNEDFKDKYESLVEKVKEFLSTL

parent 293 cells = experiment: Proliferation of parental 293 cells treated with nucleoside analogs; format: cell-based, human
Experimental: Next, whether the dCK-S74E/R104M/D133A variant could inhibit cell growth in the presence of NAs including BVdU was tested. Human 293 cells were stably transfected with a recombinant expression construct encoding the dCK-S74E/R104M/D133A protein. The proliferative capacity of the stably transfected cell line was compared to the parental 293 cells after treating the cells with several nucleoside analogs such as AraC, gemcitabine, and BVdU. Since some of the nucleosides were first dissolved in the solvent DMSO, equal amounts of DMSO were used as control.

Wild Type dCK [9] = molecular target: T2, Wild Type dCK (Homo sapiens, UniProt P27707); experiment: Steady-state kinetic (colorimetric, enzyme-coupled) assay of nucleoside phosphorylation by wild type dCK; details: for Km / kcat: Wild Type dCK, 0.4 μM dCK, 1 mM ATP.Mg, 37° C.
T2 sequence (P27707 whole entry, the tested form may be a part): as the sequence (P27707 whole entry A100V/R104M/D133A) above, with V100A, M104R, A133D counted along it

Wild Type dCK [10] = molecular target: T2, Wild Type dCK; parameters: The electron density for dCK extended to the last residue (Leu260), while the N-terminus (residues 1 to 19) was flexible; His-tag (N); made in house; host or cells: E. coli BL21(DE3); details: Lotfi et al., 1999; Mansson et al., 2003; cited from earlier work
HL60 cell line = experiment: Apoptosis assay (Annexin V and PI staining) in CD33 positive HL60 cells; format: cell-based, human; details: HL60, AraC at 1 μM, after 96 hours
Experimental: The HuM195 antibody will only bind and internalize to cells expressing CD33. Thus, the HL60 cell line (derived from AML cells) and the NB4 cell line, which are CD33 positive, were used to test the activity of the HuM195-dCK system in live cells. The cells were treated with AraC, the HuM195-dCK conjugate, or the combination of HuM195-dCK and the AraC. Annexin V and propidium iodide (PI) staining was used to identify apoptotic cells. […] The combination of AraC with the conjugate results in 20% more killing than AraC alone.

NB4 cell line = experiment: Apoptosis assay in CD33 positive NB4 cells; format: cell-based; details: NB4, AraC 250 nM, after 96 hours
Experimental: The NB4 cells were also treated with AraC, the HuM195-dCK conjugate, or the combination of HuM195-dCK and the AraC, and an apoptosis assay was performed as above. The AraC dose used, however, was decreased from 1000 nM to 250 nM. The results were similar to those observed in the HL60 cells (FIG. 8). The conjugate with AraC (right bars) achieve ˜65% cell killing after 96 hours, whereas AraC alone was below 40%.

Row | Compound | kobs D-dC [1] [s⁻¹] | kobs D-dG [2] [s⁻¹] | kobs D-dA [3] [s⁻¹] | kobs AraC [4] [s⁻¹] | kobs Gem [5] [s⁻¹] | kobs D-dT [6] [s⁻¹] | kobs L-dT [7] [s⁻¹] | rate of phosphorylation, D-dC [1] [s⁻¹] | rate of phosphorylation, D-dG [2] [s⁻¹] | rate of phosphorylation, Gem [5] [s⁻¹] | rate of phosphorylation, D-dT [6] [s⁻¹] | rate of phosphorylation, L-dT [7] [s⁻¹] | rate of phosphorylation, L-dU [8] [s⁻¹] | further results
1 | R104K/D133A: human dCK mutant, lysine at position 104, D133A | <0.005 | <0.005 | <0.005 | <0.005 | <0.005 | <0.005 | <0.005 | – | – | – | – | – | – | –
2 | R104Q/D133A: modified human dCK, glutamine at position 104, alanine at position 133, SEQ ID NO:8 | 0.08 ± 0.01 | 0.06 ± 0.01 | 0.18 ± 0.04 | 0.18 ± 0.01 | 0.17 ± 0.04 | 0.10 ± 0.06 | 0.15 ± 0.02 | 0.08 | 0.06 | 0.17 | 0.1 | 0.15 | 0.14 | Rel kobs (D-dC) [1]: 2.7; Rel kobs (D-dG) [2]: 0.06; Rel kobs (D-dA) [3]: 0.15; Rel kobs (AraC) [4]: 0.60; Rel kobs (Gem) [5]: 0.43; Rel kobs (D-dT) [6]: 12.5; Rel kobs (L-dT) [7]: 9
3 | R104F/D133A: human dCK mutant, phenylalanine at position 104, D133A | <0.005 | <0.005 | <0.005 | <0.005 | <0.005 | <0.005 | <0.005 | 0.02 | 0.02 | – | 0.02 | 0.02 | – | –
4 | R104I/D133A: modified human dCK, isoleucine at position 104, alanine at position 133, SEQ ID NO:12 | 0.06 ± 0.01 | 0.08 ± 0.01 | 0.21 ± 0.01 | 0.07 ± 0.01 | 0.21 ± 0.08 | 0.40 ± 0.01 | 0.19 ± 0.02 | 0.06 | 0.08 | 0.21 | 0.4 | 0.19 | 0.4 | Rel kobs (D-dC) [1]: 2; Rel kobs (D-dG) [2]: 0.08; Rel kobs (D-dA) [3]: 0.18; Rel kobs (AraC) [4]: 0.25; Rel kobs (Gem) [5]: 0.53; Rel kobs (D-dT) [6]: 50; Rel kobs (L-dT) [7]: 10
5 | Nc1ccn([C@@H]2O[C@H](CO)[C@@H](O)C2(F)F)c(=O)n1 [gemcitabine, 2′,2′-difluorodeoxycytidine] | – | – | – | – | – | – | – | – | – | – | – | – | – | Km (A100V/R104M/D133A-dCK): 50 µM; kcat (A100V/R104M/D133A-dCK): 3.52 s⁻¹; inhibition at 1 µM (parent 293 cells; Homo sapiens, HEK293, 1 μM, read-out: inhibition of growth): 75%; Km (Wild Type dCK [9]): 22 µM; kcat (Wild Type dCK [9]): 0.37 s⁻¹; higher enzymatic efficiency compared to dC (Wild Type dCK [9]; wild type dCK): ~4 fold; increase in kcat compared to dC (Wild Type dCK [9]; wild type dCK): 10 fold
6 | R104V/D133A: human dCK mutant, valine at position 104, D133A | <0.005 | <0.005 | <0.005 | <0.005 | <0.005 | <0.005 | <0.005 | 0.03 | 0.03 | – | 0.04 | 0.05 | – | –
7 | R104Q: human dCK variant of Table 8 with Q at position 104 and unchanged D133 | – | – | – | – | – | – | – | 0.07 | 0.06 | 0.06 | 0.05 | 0.06 | 0.06 | –
8 | Nc1nc(Cl)nc2c1ncn2[C@@H]1O[C@H](CO)[C@@H](O)[C@@H]1F [clofarabine, 2-chloro-2′-arabino-fluoro-2′-deoxyadenosine] | – | – | – | – | – | – | – | – | – | – | – | – | – | efficiency as substrate for dCK relative to cladribine (Wild Type dCK [10]): ~3 fold
9 | Nc1ccn([C@H]2CC[C@@H](CO)O2)c(=O)n1 [ddC, 2′,3′-dideoxycytidine] | – | – | – | – | – | – | – | – | – | – | – | – | – | Km (Wild Type dCK [9]): 407 µM; kcat (Wild Type dCK [9]): 0.18 s⁻¹
10 | Nc1nc2c(ncn2[C@H]2C[C@H](O)[C@@H](CO)O2)c(=O)[nH]1 [D-dG, deoxyguanosine] | – | – | – | – | – | – | – | – | – | – | – | – | – | kcat, Wild-type (Wild Type dCK [9]; Table 9): ~2.5 s⁻¹
11 | R104L/D133A: modified human dCK, leucine at position 104, alanine at position 133, SEQ ID NO:10 | 0.27 ± 0.09 | 0.30 ± 0.01 | 3.45 ± 0.16 | 0.64 ± 0.06 | 2.04 ± 0.03 | 2.86 ± 0.09 | 1.07 ± 0.09 | 0.27 | 0.3 | 2.04 | 2.86 | 1.07 | 2.56 | Rel kobs (D-dC) [1]: 9; Rel kobs (D-dG) [2]: 0.32; Rel kobs (D-dA) [3]: 2.9; Rel kobs (AraC) [4]: 0.35; Rel kobs (Gem) [5]: 5.20; Km [6]: < 25 µM; Rel kobs (D-dT) [6]: 358; Rel kobs (L-dT) [7]: 63
12 | Nc1ccn([C@@H]2O[C@H](CO)[C@@H](O)[C@@H]2O)c(=O)n1 [Ara-C, 1-β-D-arabinofuranosylcytosine] | – | – | – | – | – | – | – | – | – | – | – | – | – | cell death (apoptotic cells) (HL60 cell line): ~50%; cell killing (NB4 cell line): below 40%; inhibition of growth (parent 293 cells; 1 μM): no inhibitory effect

— patent US8349318B2, “Use of specifically engineered enzymes to enhance the efficacy of prodrugs” (The Board of Trustees of the University of Illinois, priority 2008, dated 2013)
